In patent EP4631523A2:

How the values were obtained:
[1] = biological target: interleukin 6 (IL-6) (UniProt P05231); assay: IL-6 binding ELISA; 25±2°C, 1 month
[2] = biological target: interleukin 6 (IL-6) (UniProt P05231); assay: IL-6 binding ELISA; 25±2°C, 3 months
[3] = biological target: interleukin 6 (IL-6) (UniProt P05231); assay: IL-6 binding ELISA; 5±3°C, 9 months
[4] = biological target: interleukin 6 (IL-6) (UniProt P05231); assay: IL-6 binding ELISA; 40±2°C, 3 months
[5] = biological target: interleukin 6 (IL-6) (UniProt P05231); assay: IL-6 binding ELISA; 5±3°C, 1 month
[6] = biological target: interleukin 6 (IL-6) (UniProt P05231); assay: IL-6 binding ELISA; 40±2°C, 0 months
[7] = biological target: interleukin 6 (IL-6) (UniProt P05231); assay: IL-6 binding ELISA; 25±2°C, 1 month; remark: listed apart in the source
[8] = biological target: interleukin 6 (IL-6) (UniProt P05231); assay: IL-6 binding ELISA; 40±2°C, 3 months; remark: listed apart in the source
[9] = biological target: interleukin 6 (IL-6) (UniProt P05231); assay: IL-6 binding ELISA, relative to a Phase I DS lot; 20 mg/mL formulation without methionine, T0 (frozen aliquot)
[10] = biological target: interleukin 6 (IL-6) (UniProt P05231); assay: IL-6 binding ELISA; 25±2°C, 6 months
[11] = biological target: interleukin 6 (IL-6) (UniProt P05231); assay: IL-6 binding ELISA; 25±2°C, 0 months
[12] = biological target: interleukin 6 (IL-6) (UniProt P05231); assay: IL-6 binding ELISA; 5±3°C, 0 months
[13] = biological target: interleukin 6 (IL-6) (UniProt P05231); assay: IL-6 binding ELISA; 5±3°C, 0 months; remark: listed apart in the source
[14] = biological target: interleukin 6 (IL-6) (UniProt P05231); assay: IL-6 binding ELISA; 40±2°C, 1 month
[15] = biological target: interleukin 6 (IL-6) (UniProt P05231); assay: IL-6 binding ELISA; 5±3°C, 9 months; remark: listed apart in the source
[16] = biological target: interleukin 6 (IL-6) (UniProt P05231); assay: IL-6 binding ELISA; 25±2°C, 1 month; remark: listed apart in the source
[17] = biological target: interleukin 6 (IL-6) (UniProt P05231); assay: IL-6 binding ELISA; 5±3°C, 6 months
[18] = biological target: interleukin 6 (IL-6) (UniProt P05231); assay: IL-6 binding ELISA; 25±2°C, 6 months; remark: listed apart in the source
[19] = biological target: interleukin 6 (IL-6) (UniProt P05231); assay: IL-6 binding ELISA; 25±2°C, 0 months; remark: listed apart in the source
[20] = biological target: interleukin 6 (IL-6) (UniProt P05231); assay: IL-6 binding ELISA; 5±3°C, 12 months
[21] = biological target: interleukin 6 (IL-6) (UniProt P05231); assay: IL-6 binding ELISA; 40±2°C, 1 month; remark: listed apart in the source
[22] = biological target: interleukin 6 (IL-6) (UniProt P05231); assay: IL-6 binding ELISA; 25±2°C, 3 months; remark: listed apart in the source
[23] = biological target: interleukin 6 (IL-6) (UniProt P05231); assay: IL-6 binding ELISA; 25±2°C, 1 month; remark: listed apart in the source
[24] = biological target: interleukin 6 (IL-6) (UniProt P05231); assay: IL-6 binding ELISA; 5±3°C, 6 months; remark: listed apart in the source
[25] = biological target: interleukin 6 (IL-6) (UniProt P05231); assay: IL-6 binding ELISA; 5±3°C, 6 months; remark: listed apart in the source
[26] = biological target: interleukin 6 (IL-6) (UniProt P05231); assay: IL-6 binding ELISA; 5±3°C, 3 months
[27] = biological target: interleukin 6 (IL-6) (UniProt P05231); assay: IL-6 binding ELISA; 5±3°C, 0 months; remark: listed apart in the source
[28] = biological target: interleukin 6 (IL-6) (UniProt P05231); assay: IL-6 binding ELISA, relative to a Phase I DS lot; 50 mg/mL formulation without methionine, 12 months at 2 to 8°C
[29] = biological target: interleukin 6 (IL-6) (UniProt P05231); assay: IL-6 binding ELISA; 25±2°C, 3 months; remark: listed apart in the source
[30] = biological target: interleukin 6 (IL-6) (UniProt P05231); assay: IL-6 binding ELISA; 40±2°C, 3 months; remark: listed apart in the source
[31] = biological target: interleukin 6 (IL-6) (UniProt P05231); assay: IL-6 binding ELISA; 40±2°C, 0 months; remark: listed apart in the source
[32] = biological target: interleukin 6 (IL-6) (UniProt P05231); assay: IL-6 binding ELISA; 5±3°C, 12 months; remark: listed apart in the source

Chain of UniProt P05231 (P05231 30-212 limits assumed): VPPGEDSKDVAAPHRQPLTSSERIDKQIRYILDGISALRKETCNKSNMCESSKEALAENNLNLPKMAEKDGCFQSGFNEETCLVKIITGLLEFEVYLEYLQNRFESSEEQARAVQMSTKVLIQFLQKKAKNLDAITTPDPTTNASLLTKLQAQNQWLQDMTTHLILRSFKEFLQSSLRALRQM

IL-6 binding ELISA (% of Reference Standard) [1]: 98%
IL-6 binding ELISA (% of Reference Standard) [2]: 91%
IL-6 binding ELISA (% of Reference Standard) [3]: 98%
IL-6 binding ELISA (% of Reference Standard) [4]: 94%
IL-6 binding ELISA (% of Reference Standard) [5]: 94%
IL-6 binding ELISA (% of Reference Standard) [6]: 97%
IL-6 binding ELISA (% of Reference Standard) [7]: 96%
IL-6 binding ELISA (% of Reference Standard) [8]: 78%
IL-6 binding ELISA (% of assay control) [9]: 61%
IL-6 binding ELISA (% of Reference Standard) [10]: 88%
IL-6 binding ELISA (% of Reference Standard) [11]: 97%
IL-6 binding ELISA (% of Reference Standard) [12]: 91%
IL-6 binding ELISA (% of Reference Standard) [13]: 94%
IL-6 binding ELISA (% of Reference Standard) [14]: 85%
IL-6 binding ELISA (% of Reference Standard) [15]: 89%
IL-6 binding ELISA (% of Reference Standard) [16]: 93%
IL-6 binding ELISA (% of Reference Standard) [17]: 97%
IL-6 binding ELISA (% of Reference Standard) [18]: 92%
IL-6 binding ELISA (% of Reference Standard) [19]: 103%
IL-6 binding ELISA (% of Reference Standard) [20]: 98%
IL-6 binding ELISA (% of Reference Standard) [21]: 92%
IL-6 binding ELISA (% of Reference Standard) [22]: 97%
IL-6 binding ELISA (% of Reference Standard) [23]: 110%
IL-6 binding ELISA (% of Reference Standard) [24]: 95%
IL-6 binding ELISA (% of Reference Standard) [25]: 83%
IL-6 binding ELISA (% of Reference Standard) [26]: 83%
IL-6 binding ELISA (% of Reference Standard) [27]: 103%
IL-6 binding ELISA (% of assay control) [28]: 89%
IL-6 binding ELISA (% of Reference Standard) [29]: 102%
IL-6 binding ELISA (% of Reference Standard) [30]: 99%
IL-6 binding ELISA (% of Reference Standard) [31]: 96%
IL-6 binding ELISA (% of Reference Standard) [32]: 95%
B1: COR-001 antibody (antibody, human IgG1, kappa, V domains shown)
VH: EVQLVESGGGLVQPGGSLRLSCAASGFTISSNYMIWVRQAPGKGLEWVSDLYYYAGDTYYADSVKGRFTMSRDISKNTVYLQMNSLRAEDTAVYYCARWADDHPPWIDLWGRGTLVTVSS
VL: DIQMTQSPSTLSASVGDRVTITCRASQGISSWLAWYQQKPGKAPKVLIYKASTLESGVPSRFSGSGSGTEFTLTISSLQPDDFATYYCQQSWLGGSFGQGTKLEIKR
